The values below come from paper PMC2746283, “BtubA-BtubB Heterodimer Is an Essential Intermediate in Protofilament Assembly” (PLoS ONE, 2009).

The labels stand for the following.
B1: BtubB, wild type (natural protein)
chain: VREILSIHVGQCGNQIADSFWRLALREHGLTEAGTLKEGSNAAANSNMEVFFHKVRDGKYVPRAVLVDLEPGVIARIEGGDMSQLFDESSIVRKIPGAANNWARGYNVEGEKVIDQIMNVIDSAVEKTKGLQGFLMTHSIGGGSGSGLGSLILERLRQAYPKKRIFTFSVVPSPLISDSAVEPYNAILTLQRILDNADGAVLLDNEALFRIAKAKLNRSPNYMDLNNIIALIVSSVTASLRFPGKLNTDLSEFVTNLVPFPGNHFLTASFAPMRGAGQEGQVRTNFPDLARETFAQDNFTAAIDWQQGVYLAASALFRGDVKAKDVDENMATIRKSLNYASYMPASGGLKLGYAETAPEGFASSGLALVNHTGIAAVFERLIAQFDIMFDNHAYTHWYENAGVSRDMMAKARNQIATLAQSYRDAS
notes: BtubB, bacterial tubulin-like protein of Prosthecobacter; the species is printed only for BtubA (P. dejongeii); also called B-wt; BtubB WT; source: E. coli, purified as described previously [3], with an added Sephacryl HR-100 column step; not shown: His tag, N-terminal, kept
B2: BtubB-D249K (natural protein)
chain: VREILSIHVGQCGNQIADSFWRLALREHGLTEAGTLKEGSNAAANSNMEVFFHKVRDGKYVPRAVLVDLEPGVIARIEGGDMSQLFDESSIVRKIPGAANNWARGYNVEGEKVIDQIMNVIDSAVEKTKGLQGFLMTHSIGGGSGSGLGSLILERLRQAYPKKRIFTFSVVPSPLISDSAVEPYNAILTLQRILDNADGAVLLDNEALFRIAKAKLNRSPNYMDLNNIIALIVSSVTASLRFPGKLNTKLSEFVTNLVPFPGNHFLTASFAPMRGAGQEGQVRTNFPDLARETFAQDNFTAAIDWQQGVYLAASALFRGDVKAKDVDENMATIRKSLNYASYMPASGGLKLGYAETAPEGFASSGLALVNHTGIAAVFERLIAQFDIMFDNHAYTHWYENAGVSRDMMAKARNQIATLAQSYRDAS
notes: BtubB of Prosthecobacter (species printed only for BtubA: P. dejongeii) with the point mutation D249K; The running text twice calls it BtubA-D249K; also called between-dimer mutant on the bottom of BtubB; source: E. coli, purified as described previously [3], with an added Sephacryl HR-100 column step; not shown: His tag, N-terminal, kept
B3: BtubA-V179K (natural protein, P. dejongeii)
chain: MKVNNTIVVSIGQAGNQIAASFWKTVCLEHGIDPLTGQTAPGVAPRGNWSSFFSKLGESSSGSYVPRAIMVDLEPSVIDNVKATSGSLFNPANLISRTEGAGGNFAVGYLGAGREVLPEVMSRLDYEIDKCDNVGGIIVLHAIGGGTGSGFGALLIESLKEKYGEIPVLSCAVLPSPQKSSVVTEPYNTVFALNTLRRSADACLIFDNEALFDLAHRKWNIESPTVDDLNLLITEALAGITASMRFSGFLTVEITLRELLTNLVPQPSLHFLMCAFAPLTPPDRSKFEELGIEEMIKSLFDNGSVFAACSPMEGRFLSTAVLYRGIMEDKPLADAALAAMREKLPLTYWIPTAFKIGYVEQPGISHRKSMVLLANNTEIARVLDRICHNFDKLWQRKAFANWYLNEGMSEEQINVLRASAQELVQSYQVAEESGAKAKVQDSAGDTGMRAAAAGVSDDARGSMSLRDLVDRRR
B4: BtubA, wild type (natural protein, P. dejongeii)
chain: MKVNNTIVVSIGQAGNQIAASFWKTVCLEHGIDPLTGQTAPGVAPRGNWSSFFSKLGESSSGSYVPRAIMVDLEPSVIDNVKATSGSLFNPANLISRTEGAGGNFAVGYLGAGREVLPEVMSRLDYEIDKCDNVGGIIVLHAIGGGTGSGFGALLIESLKEKYGEIPVLSCAVLPSPQVSSVVTEPYNTVFALNTLRRSADACLIFDNEALFDLAHRKWNIESPTVDDLNLLITEALAGITASMRFSGFLTVEITLRELLTNLVPQPSLHFLMCAFAPLTPPDRSKFEELGIEEMIKSLFDNGSVFAACSPMEGRFLSTAVLYRGIMEDKPLADAALAAMREKLPLTYWIPTAFKIGYVEQPGISHRKSMVLLANNTEIARVLDRICHNFDKLWQRKAFANWYLNEGMSEEQINVLRASAQELVQSYQVAEESGAKAKVQDSAGDTGMRAAAAGVSDDARGSMSLRDLVDRRR

In the assay “BtubA, wild type” the target is B4. Put plainly: AUC; sedimentation equilibrium of BtubA + BtubB mixtures, 20°C, 10,000-14,000 rpm, HMK buffer (50 mM Hepes, 5 mM MgAc, 350 mM KAc, 1 mM EGTA, pH 7.7), no GTP; molar ratios 1:4 to 4:1, each protein 8 to 32 µM; global fit to a monomer-dimer model (HeteroAnalysis). Particulars: both partners purified.
In the assay “BtubA-V179K” the target is B3. The assay is described as above. Particulars: both partners purified.
In the assay “BtubB, wild type” the target is B1. Put plainly: cell-based or functional assay.
The assay “BtubB-D249K” addresses B2. Put plainly: cell-based or functional assay.
A further assay addresses T1, BtubB-N100E (Prosthecobacter (species  for …, UniProt Q8GCC1 1-426, N100E)).
T1 sequence: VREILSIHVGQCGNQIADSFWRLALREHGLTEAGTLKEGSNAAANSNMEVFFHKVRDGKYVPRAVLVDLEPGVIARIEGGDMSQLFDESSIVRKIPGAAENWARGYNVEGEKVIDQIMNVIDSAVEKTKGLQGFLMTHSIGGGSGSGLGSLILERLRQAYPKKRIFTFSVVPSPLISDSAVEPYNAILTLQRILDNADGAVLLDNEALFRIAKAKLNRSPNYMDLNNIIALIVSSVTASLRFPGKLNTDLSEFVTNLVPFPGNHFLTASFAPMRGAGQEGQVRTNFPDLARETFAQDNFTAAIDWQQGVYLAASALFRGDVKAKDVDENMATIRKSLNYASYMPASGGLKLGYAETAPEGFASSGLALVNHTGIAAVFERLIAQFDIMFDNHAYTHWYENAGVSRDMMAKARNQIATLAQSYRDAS
As to the kind of experiment: cell-based or functional assay.

On to B1, for which, in the assay with BtubA, wild type, the Kd is 7.3 µM.

In the case of B2, in the assay with BtubA-V179K, the Kd was 3.2 µM.

Turning to B3, the “GTPase activity of the 1:1 mixture, per BtubB (GTP regeneration, coupled NADH assay, ∼29°C)” value in the assay with BtubB, wild type is 0.072 GTP min^−1 Btub^−1; with BtubB-D249K it was 0.079 GTP min^−1 Btub^−1.

With B4, in the assay with BtubB-D249K, the “GTPase activity of the 1:1 mixture, per BtubB (GTP regeneration, coupled NADH assay, ∼29°C)” value turned out to be 0.077 GTP min^−1 Btub^−1.

B5: BtubA-E258K (natural protein, P. dejongeii)
chain: MKVNNTIVVSIGQAGNQIAASFWKTVCLEHGIDPLTGQTAPGVAPRGNWSSFFSKLGESSSGSYVPRAIMVDLEPSVIDNVKATSGSLFNPANLISRTEGAGGNFAVGYLGAGREVLPEVMSRLDYEIDKCDNVGGIIVLHAIGGGTGSGFGALLIESLKEKYGEIPVLSCAVLPSPQVSSVVTEPYNTVFALNTLRRSADACLIFDNEALFDLAHRKWNIESPTVDDLNLLITEALAGITASMRFSGFLTVEITLRKLLTNLVPQPSLHFLMCAFAPLTPPDRSKFEELGIEEMIKSLFDNGSVFAACSPMEGRFLSTAVLYRGIMEDKPLADAALAAMREKLPLTYWIPTAFKIGYVEQPGISHRKSMVLLANNTEIARVLDRICHNFDKLWQRKAFANWYLNEGMSEEQINVLRASAQELVQSYQVAEESGAKAKVQDSAGDTGMRAAAAGVSDDARGSMSLRDLVDRRR
For the molecule B5, the “GTPase activity of the 1:1 mixture, per BtubB (GTP regeneration, coupled NADH assay, ∼29°C)” value with BtubB, wild type was found to be 0.088 GTP min^−1 Btub^−1; with BtubB-N100E it was 0.098 GTP min^−1 Btub^−1.
